How the values were obtained:
[1] = target: CADM1 on small cell lung cancer cell lines H146 and H69 (human) (UniProt Q9BY67); assay: flow cytometry, PE anti-HA antibody alone (control) on H69 cells
[2] = target: CADM1 on small cell lung cancer cell lines H146 and H69 (human) (UniProt Q9BY67); assay: flow cytometry, PE anti-HA antibody alone (control) on H146 cells
[3] = target: T1, CADM1 peptide structure expressed on cells (CADM1 peptide, Myc tag, hinge, transmembrane domain, GFP) (human); assay: flow cytometry, PE anti-HA antibody alone (control) on cells with the CADM1 peptide structure
T1 sequence: DSRAGEEGSIRAVDH

[4] = target: CADM1 peptide expressed on SBC-5 small cell lung cancer cells (CADM1-SBC-5; peptide - transmembrane domain - GFP) (human); assay: flow cytometry, PE anti-HA antibody alone (control) on SBC-5 cells expressing the CADM1 peptide
[5] = target: comparison structure: the same structure without the CADM1 peptide (Myc tag, hinge, transmembrane domain, GFP) on cells; assay: flow cytometry, PE anti-HA antibody alone (control) on cells with the structure without the peptide

In the case of “PE-conjugated HA antibody (16B12 clone, Biolegend, Cat No. 901518)”, the 결합력 % [1] is reported as 2.2%, the 결합력 % [2] is reported as 2.1% and the 결합력 % [3] is reported as 0%. It also gave a 결합력 % [4] of 0.3% and a 결합력 % [5] of 0.1%.

— patent KR20220167207A
